# Measurements reported in patent publication US20200087364A1 (IMMATICS BIOTECHNOLOGIES, published 2020).
# Molecular target: T1, HLA-A*01:01 (human)
# T1 construct: MHC class I monomer first loaded with a UV-sensitive peptide (not identified) that is cleaved by UV irradiation and exchanged for the tested peptide; captured on streptavidin plates, detected with anti-β2m; also called peptide-receptive MHC molecules
# Assay: UV-ligand exchange, anti-b2m ELISA
# Method in brief: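 Peptide–MHC complexes made by UV-ligand exchange of a UV-cleavable peptide; exchange yield measured by ELISA on streptavidin-coated plates, samples diluted 100-fold, 1 h 37 °C. Detection with 2 ug/ml HRP anti-β2m, TMB, A450; refolded HLA-A*02:01/MLA-001 monomer standards 15-500 ng/ml.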
binder,measurement,value
YSPDSFNVSW,peptide exchange yield,20 to 50%
ESMDIFPLGW,peptide exchange yield,20 to 50%
SVDSNLVAY,peptide exchange yield,50 to 75%
PANYLGKMTY,peptide exchange yield,50 to 75%
QTYMDGLLHY,peptide exchange yield,> 75%
YFGNYFTYY,peptide exchange yield,10 to 20%
AVNALQSVY,peptide exchange yield,20 to 50%
NTMDAVPRIDHY,peptide exchange yield,> 75%
SSWSAGENDSY,peptide exchange yield,50 to 75%
VAGLEAGVLY,peptide exchange yield,20 to 50%
SADHPGLTF,peptide exchange yield,20 to 50%
DSTDGCLLSF,peptide exchange yield,20 to 50%
HLLSVSLYY,peptide exchange yield,10 to 20%
LTDPQVSYV,peptide exchange yield,50 to 75%
VLDPMLDFY,peptide exchange yield,> 75%
YPVVVAESMY,peptide exchange yield,20 to 50%
RLNGSVASY,peptide exchange yield,20 to 50%
EIIRYIFAY,peptide exchange yield,20 to 50%
MADRGEARL,peptide exchange yield,20 to 50%
SWSAGENDSYS,peptide exchange yield,10 to 20%
NSENHILKY,peptide exchange yield,> 75%
MSPDIALLYL,peptide exchange yield,50 to 75%
YMSPDIALLY,peptide exchange yield,> 75%
NKEINYFMY,peptide exchange yield,50 to 75%
RFDDINQEF,peptide exchange yield,10 to 20%
FTAEEGQLY,peptide exchange yield,50 to 75%
SGALDEAAAY,peptide exchange yield,20 to 50%
LTDRDVSFY,peptide exchange yield,> 75%
DTGYLQLYY,peptide exchange yield,> 75%
FVDTKVPEH,peptide exchange yield,20 to 50%
MTSTEQSLY,peptide exchange yield,50 to 75%
ITVDVRDEF,peptide exchange yield,10 to 20%
LTDTGYLQLY,peptide exchange yield,> 75%
ESAATGQLDY,peptide exchange yield,50 to 75%
AVMEAAFVY,peptide exchange yield,50 to 75%
RLSTIRHLY,peptide exchange yield,50 to 75%
WSDSTSQTIY,peptide exchange yield,> 75%
SRSDFEWVY,peptide exchange yield,20 to 50%
FHADSDDESF,peptide exchange yield,10 to 20%
ASSLDSLHY,peptide exchange yield,> 75%
EDDEDEDLY,peptide exchange yield,50 to 75%
MTSTEQSLYY,peptide exchange yield,50 to 75%
YADPSANRDLL,peptide exchange yield,20 to 50%
TAKAPSTEY,peptide exchange yield,20 to 50%
SLIIDDTEY,peptide exchange yield,20 to 50%
VACGNNPVY,peptide exchange yield,50 to 75%
ETSFSTSHY,peptide exchange yield,> 75%
YEPATMEQY,peptide exchange yield,20 to 50%
PPDHAVGRTKY,peptide exchange yield,20 to 50%
RFRSITQSYY,peptide exchange yield,10 to 20%
SANALILTY,peptide exchange yield,20 to 50%
NSALNPLLY,peptide exchange yield,> 75%
KSWSQSSSLMY,peptide exchange yield,50 to 75%
LMEKEDYHSLY,peptide exchange yield,50 to 75%
YTAHVGYSMY,peptide exchange yield,> 75%
YYDLVESTF,peptide exchange yield,10 to 20%
FSEPFHLIVSY,peptide exchange yield,> 75%
GSNPARYEF,peptide exchange yield,20 to 50%
TQHFVQENY,peptide exchange yield,20 to 50%
QVWGGQPVY,peptide exchange yield,10 to 20%
QVPLDCVLY,peptide exchange yield,20 to 50%
ILKGGSGTY,peptide exchange yield,20 to 50%
LPDPNVQKY,peptide exchange yield,20 to 50%
WSQSSSLMY,peptide exchange yield,> 75%
NSAINPLIY,peptide exchange yield,> 75%
YYYDTHTNTY,peptide exchange yield,10 to 20%
RIEAIRAEY,peptide exchange yield,20 to 50%
TSDQLGYSY,peptide exchange yield,50 to 75%
HSDLLEDSKY,peptide exchange yield,50 to 75%
ASDVDTLLK,peptide exchange yield,50 to 75%
ETEPERHLGSY,peptide exchange yield,50 to 75%
IPSFNEMVY,peptide exchange yield,20 to 50%
